Laboratory results as given in the supplement of paper PMC9112550, “Optimization of the antimicrobial peptide Bac7 by deep mutational scanning” (BMC Biology, 2022).

What follows are sequences tested on Escherichia coli TOP10 (assay: shrunken log2 fold change of peptide-encoding DNA abundance (4.5 h post-induction vs induction); higher = less antimicrobial activity (less host growth inhibition)). Details: time post-induction: 4.5 h; library: site-saturation at positions 5, 18, 19, 20.
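Note: peptides expressed intracellularly from a pBAD plasmid library in pooled LB shake-flask culture, induced with 0.3% L-arabinose, DNA abundance read by NGS, three biological replicates, DESeq2 with apeglm shrinkage.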

Going from RRIRPRPPRLPRPRPRPRMNPRP to RRIRGRPPRLPRPRPRPQRNPRP, the “shrunken log2 fold change” value rises from 0.0159 to 0.473.

First: RRIRMRPPRLPRPRPRPDTQPRP
Second: RRIRFRPPRLPRPRPRPPPPPRP
The “shrunken log2 fold change” value of the first is lower: 0.393 for the first, 1.58 for the second.

RRIRERPPRLPRPRPRPGAHPRP and RRIRSRPPRLPRPRPRPRFIPRP are within 0.2 log units of each other in “shrunken log2 fold change” value: 0.0368 for the first, 0.00415 for the second.

RRIRDRPPRLPRPRPRPTCPPRP and RRIRCRPPRLPRPRPRPMEFPRP are within 0.2 log units of each other in “shrunken log2 fold change” value: -0.119 for the first, -0.0158 for the second.

RRIRSRPPRLPRPRPRPHKLPRP and RRIRMRPPRLPRPRPRPQNKPRP are within 0.2 log units of each other in “shrunken log2 fold change” value: -0.228 for the first, -0.176 for the second.

First: RRIRIRPPRLPRPRPRPFLYPRP
Second: RRIRYRPPRLPRPRPRPEPRPRP
The “shrunken log2 fold change” value of the first is lower: -0.84 for the first, 0.408 for the second.

RRIRIRPPRLPRPRPRPSPAPRP and RRIRVRPPRLPRPRPRPCSVPRP are within 0.2 log units of each other in “shrunken log2 fold change” value: -0.11 for the first, -0.0384 for the second.

RRIRRRPPRLPRPRPRPWHPPRP and RRIRPRPPRLPRPRPRPVKLPRP are within 0.2 log units of each other in “shrunken log2 fold change” value: 0.0925 for the first, -0.0669 for the second.

RRIRCRPPRLPRPRPRPKAMPRP and RRIRMRPPRLPRPRPRPDFLPRP are within 0.2 log units of each other in “shrunken log2 fold change” value: 0.234 for the first, 0.0612 for the second.

RRIRNRPPRLPRPRPRPTMNPRP and RRIRIRPPRLPRPRPRPKMEPRP are within 0.2 log units of each other in “shrunken log2 fold change” value: -0.134 for the first, -0.103 for the second.

Compared with RRIRKRPPRLPRPRPRPQEWPRP, RRIRFRPPRLPRPRPRPHWTPRP is lower in “shrunken log2 fold change” value: -0.0193 for the first, -0.301 for the second.

Going from RRIRKRPPRLPRPRPRPQPHPRP to RRIRGRPPRLPRPRPRPVNNPRP, the “shrunken log2 fold change” value falls from 0.554 to -0.0355.

RRIRMRPPRLPRPRPRPWTYPRP and RRIRVRPPRLPRPRPRPNSWPRP are within 0.2 log units of each other in “shrunken log2 fold change” value: -0.0551 for the first, 0.0957 for the second.

RRIRLRPPRLPRPRPRPHSYPRP and RRIRERPPRLPRPRPRPNAHPRP are within 0.2 log units of each other in “shrunken log2 fold change” value: -0.0533 for the first, 0.0249 for the second.

First: RRIRSRPPRLPRPRPRPIQHPRP
Second: RRIRKRPPRLPRPRPRPCAVPRP
The “shrunken log2 fold change” value of the first is lower: -0.204 for the first, 2.99 for the second.

RRIRWRPPRLPRPRPRPSPHPRP and RRIRYRPPRLPRPRPRPRNDPRP are within 0.2 log units of each other in “shrunken log2 fold change” value: -0.0688 for the first, -0.205 for the second.

First: RRIRARPPRLPRPRPRPNIMPRP
Second: RRIRERPPRLPRPRPRPVASPRP
The “shrunken log2 fold change” value of the first is lower: -0.266 for the first, -0.0471 for the second.

Compared with RRIRMRPPRLPRPRPRPDASPRP, RRIRKRPPRLPRPRPRPWACPRP is lower in “shrunken log2 fold change” value: 2.43 for the first, 0.0099 for the second.

RRIRHRPPRLPRPRPRPDKYPRP and RRIRFRPPRLPRPRPRPYADPRP are within 0.2 log units of each other in “shrunken log2 fold change” value: -0.146 for the first, -0.0222 for the second.

First: RRIRDRPPRLPRPRPRPQVAPRP
Second: RRIRSRPPRLPRPRPRPAVRPRP
The “shrunken log2 fold change” value of the first is higher: 0.166 for the first, -0.103 for the second.

First: RRIRTRPPRLPRPRPRPVMQPRP
Second: RRIRMRPPRLPRPRPRPNHSPRP
The “shrunken log2 fold change” value of the first is higher: -0.0482 for the first, -0.38 for the second.

Going from RRIRIRPPRLPRPRPRPMCGPRP to RRIRLRPPRLPRPRPRPHEIPRP, the “shrunken log2 fold change” value falls from -0.0603 to -0.298.

First: RRIRGRPPRLPRPRPRPNMFPRP
Second: RRIRWRPPRLPRPRPRPRYHPRP
The “shrunken log2 fold change” value of the first is higher: 0.351 for the first, -0.198 for the second.

RRIRERPPRLPRPRPRPSAWPRP and RRIRFRPPRLPRPRPRPFNDPRP are within 0.2 log units of each other in “shrunken log2 fold change” value: 0.0177 for the first, 0.00352 for the second.

RRIRGRPPRLPRPRPRPWIKPRP and RRIRHRPPRLPRPRPRPQTHPRP are within 0.2 log units of each other in “shrunken log2 fold change” value: -0.0249 for the first, -0.143 for the second.

Compared with RRIRHRPPRLPRPRPRPPVLPRP, RRIRYRPPRLPRPRPRPGYAPRP is lower in “shrunken log2 fold change” value: 0.0936 for the first, -0.456 for the second.

Compared with RRIRTRPPRLPRPRPRPKDEPRP, RRIRTRPPRLPRPRPRPCTYPRP is lower in “shrunken log2 fold change” value: -0.0319 for the first, -0.326 for the second.

Going from RRIRIRPPRLPRPRPRPYSWPRP to RRIRWRPPRLPRPRPRPFDKPRP, the “shrunken log2 fold change” value rises from -0.264 to -0.012.

RRIRWRPPRLPRPRPRPMFCPRP and RRIRIRPPRLPRPRPRPQNFPRP are within 0.2 log units of each other in “shrunken log2 fold change” value: -0.0733 for the first, 0.0159 for the second.

Compared with RRIRQRPPRLPRPRPRPAEEPRP, RRIRCRPPRLPRPRPRPGTAPRP is higher in “shrunken log2 fold change” value: 0.0112 for the first, 0.292 for the second.
